From the supplement of paper PMC9170038

Test system: MS2 coat protein
Assay: apparent KD of MS2 coat protein; designed switch direction (-1 OFF switch, 1 ON switch): -1; higher = weaker reporter binding
How it was run: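 An oligonucleotide input, 200 uM small-molecule ligand, or no input was present during titration of SNAP-549-labelled MS2 coat protein, which was doubled from 0.7 or 1.5 nM to 3 µM. Designed RNA switches had been transcribed on Illumina chips by stalled E. coli RNA polymerase. Apparent KD per design is the median over clusters of curves fitted to normalised cluster fluorescence.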

[1] = Eterna round: R95, input ligand: FMN 200 uM
[2] = Eterna round: R95, input ligand: microRNA oligo, concentration not stated
[3] = Eterna round: R95, input ligand: none
[4] = input ligand: microRNA oligo, concentration not stated

Sequence | apparent KD of MS2 coat protein [1] [nM] | apparent KD of MS2 coat protein [2] [nM] | apparent KD of MS2 coat protein [3] [nM] | apparent KD of MS2 coat protein (input ligand: FMN 200 uM) [nM] | apparent KD of MS2 coat protein (input ligand: none) [nM] | apparent KD of MS2 coat protein [4] [nM]
AGUACUAACACGCUAGUGUUAGUACAAUAAGCUUGUGAAACAUGAGGAUCACCCAUGUCCUCAUAAGCUCGUCUUAU [salish99_TOv2_r3_058] (puzzle: Sensor v3, turn-off variant 2) | 16.4 | 612 | 16.1 |  |  | 
AGUUAGAUAGGAUAUGCCCGAGAUAACAUGAGGAUCACCCAUGUGACCGAGUCUAUUCUAGCAGAAGGGUUUAUGA [Mod of ViennaUCT 20 - Jieux - Exclusion 5] (Eterna round: R97, puzzle: Exclusion 5) |  |  |  | 17.8 | 18.3 | 
AAUAAUAAGGAGGAUAUCGUAACCGAAAGGUUACGAGAAGGCCUAACAUGAGGAUCACCCAUGUUCCUCAAUAA [Mat - Exclusion 6 - Eli Mod - D56] (puzzle: Exclusion 6) | 468 | 186 | 389 |  |  | 
CCGACUCAAGGAUAUUGUACUGCUGACAUGAGGAUCACCCAUGUGUCCUGACGCGGACGACGAGAAGGUGACGACA [Eternabot (Original) Solution 44] (Eterna round: R97, puzzle: Exclusion 5) |  |  |  | 981 | 292 | 
UUGUUGUAUGUAGGAUAUGCAUAUUGUUAUUAUGCAGAAGGACAUGAGGAUCACCCAUGUAUAUUACUAUUAUGUACUAUAUAU [MOD of Hoglahoo's a different Title] (Eterna round: R96, puzzle: Exclusion NG 1) |  |  |  | 106 | 32.6 | 25.5
UGGCAAGUAGGAUAUUGGGUGUGGGACAUGAGGAUCACCCAUGUGAUCACUCAAUCUCUCCGAGAAGGGCUAAGAA [Araes] (puzzle: Exclusion 5) |  | 14 |  |  |  | 
UUUUUCGAACAAGCUACGUACAUGAGGAUCACCCAUGUCGGUAGAUUUGAGUAGGUUUGGAUGGAAGCUCGUCUUAU [JR_SV3TOV1_Sub085] (puzzle: Sensor v3, turn-off variant 1) | 19.4 | 28.2 | 19.5 |  |  | 
UAUUGCGAGUGAGGAUAUGACAUGAGGAUCACCCAUGUAAAGGGAGUUGGCUAUAUAGCAAGUUUUCAGAAGGCACUACUGUAU [JR_ExcNG2_Sub007] (Eterna round: R96, puzzle: Exclusion NG 2) |  |  |  | 114 | 66.4 | 48.8
AGUAGGUCUACCUUGGUGGAUCUGCAUUUUUGCAGGUGUACAUGAGGAUCACCCAUGUCCUCAUUUGCUCGUCUUAU [JL turnoff v2 99.30] (puzzle: Sensor v3, turn-off variant 2) | 488 | 629 | 473 |  |  | 
AGACUCAUUGUGAGGAUAUCGGGUCAACGAGACUACGAGAAGGCACAUGAGGAUCACCCAUGUAGCCACGGCUA [Eternabot (L2) Solution 95] (Eterna round: R97, puzzle: Brourd's mod of Exclusion 4) |  |  |  | 94.8 | 240 | 
UUAUACAAGCAAAGAUCCCACAUGAGGAUCACCCAUGUGCUCGUCUUAUAAGGAUCUGUGACGAAAGUCACGGAUCC [Mat - Sensor, turn-off var - Eli Mod - D101] (Eterna round: R97, puzzle: Sensor, turn-off variant 1) |  |  |  | 43.3 | 35.7 | 
AUAAUACAUGUAGGAUAUGCGUGGCGAAGCUAUGCAGAAGGACAUGAGGAUCACCCAUGUUCUAGCGUCUGCGUACAGAUGCUA [JL eng1 1.35 mod 1] (Eterna round: R96, puzzle: Exclusion NG 1) |  |  |  | 37.3 | 18.1 | 14
UUUAAUUUUUUUUUUUUACAAGCUUUUUGCUCGUCUUAUACAUGAGGAUCACCCAUGUGGGUAAAAGGUAAAUUAUC [JMF 63] (puzzle: Sensor v3, turn-off variant 2) | 15.3 | 32.8 | 17.3 |  |  | 
UGCGGGCUUCUGAGACCUCACAUGAGGAUCACCCAUGUGCUUGUCUUGUAAGUGGGUAGGUCGUUGGCUGACUCACA (Eterna round: R97, puzzle: Sensor, turn-off variant 1) |  |  |  | 18.2 | 17.8 | 
GGCCCGGGAGGAUAUACAUGAGGAUCACCCAUGUAGCCCGGCCCGAUCGGGCCGGGCUGUAGAAGGCCCGGGCC [-49.2, -46.3 kcal, 19% A] (Eterna round: R97, puzzle: Exclusion 3) |  |  |  | 16.9 | 13 | 
GCCUCACAUGAGGAUCACCCAUGUCAGGAUAUAGGAGACGGUAGCUUUGCUGCCUUCGCUAGAAGGGACUGGCU (puzzle: Exclusion 1) |  | 29.7 |  |  |  | 
ACGCUCCGUGUAGGAUAUCGCCGUACCACUCGGCGAGAAGGACAUGAGGAUCACCCAUGUAUGUUAUUAUCACGUGUGGCGCGC [Design 51] (Eterna round: R96, puzzle: Exclusion NG 1) |  |  |  | 25.5 | 19.9 | 15.2

Sequence | apparent KD of MS2 coat protein [1] [nM] | apparent KD of MS2 coat protein [2] [nM] | apparent KD of MS2 coat protein [3] [nM] | apparent KD of MS2 coat protein (input ligand: FMN 200 uM) [nM] | apparent KD of MS2 coat protein (input ligand: none) [nM] | apparent KD of MS2 coat protein [4] [nM]
ACAUGAGGAUCACCCAUGUAAGGUUGGUUUUCUCCGGCUGUUGAGGAUAUAGUCCGGUAUCCGCGCUAGAAGGUGAGGGUUGGC [Aenatbe mod 10] (Eterna round: R96, puzzle: Exclusion NG 3) |  |  |  | 73 | 77.2 | 71.2
ACAAGCUUUUUGCUCGUCUUGUAGAAACGUGAGAGCGAGACAUGAGGAUCACCCAUGUAAAGGCAGUAGGUGGAGAU [JR_SV3TOV2_Sub026] (puzzle: Sensor v3, turn-off variant 2) | 36.9 | 64.4 | 58.2 |  |  | 
GACGCUAAAGGAUAUACAUGAGGAUCACCCAUGUUGAGGAAGGUUAGAUGAGGAGUAAGUAGAAGGUUAGACGA [JR_Exclu3_Sub091] (puzzle: Exclusion 3) | 32 | 27.4 | 30.8 |  |  | 
AACAUGUGAGGAUAUUAUCACAAAGGCGUAGAAAUACGCGAUAAGAAGGCACAUGAGGAUCACCCAUGUUCCGA [EX4 A.24] (Eterna round: R97, puzzle: Exclusion 4) |  |  |  | 66.8 | 17.5 | 
UUUAAUUUUUUUUUUUUACAAGCUUUUUGCUCGUCUUAUACAUGAGGAUCACCCAUGUGAAUGGAAGGUAAAUUAUC [JMF 68] (puzzle: Sensor v3, turn-off variant 2) | 17.3 | 18.4 | 20.4 |  |  | 
UUUAUUUUGCAAGGAUAUGUUUAAUUUUAGUUUCCUUAAACAUGAGGAUCACCCAUGUUAUACUUACAGAAGGUGCAUAAUUUU [JR_ExcNG2_Sub036] (Eterna round: R96, puzzle: Exclusion NG 2) |  |  |  |  |  | 73.3
CCUCGACAUGAGGAUCACCCAUGUGAGGAUAUGACCUUAAAAGCGUGAGCAGUUUCUAUCAGAAGGCGCGUAGG [salish99_ex1_r4_071] (Eterna round: R97, puzzle: Exclusion 1) |  |  |  | 15.9 | 16 | 
CAGUACUGAGGAUAUACAUGAGGAUCACCCAUGUGAUCUGGUGCACGCGUACGUGUACGUAGAAGGCAGUACUG [JL 3.27 m4] (Eterna round: R97, puzzle: Exclusion 3) |  |  |  | 1280 | 121 | 
AGCUGUGGCCGAGGAUAUCUGUCUCAUAAAACCGAAAUAUAAUCGGACAUGAGGAUCACCCAUGUAGAGAAGGCGGUCUCAGCA [Eli eng2 - 096] (Eterna round: R96, puzzle: Exclusion NG 2) |  |  |  |  |  | 15.8
CCCACAGGACAUGAGGAUCACCCAUGUGCGAUAUCCUGAGCGCAGGAUAUUUUCCCACGAAAGGAAGAGAAGGGCGCCGAAAGC [Eternabot solution 1] (Eterna round: R96, puzzle: Exclusion NG 3) |  |  |  | 24.6 | 44.3 | 29.6
UUCCAACAUGAGGAUCACCCAUGUCAGGAUAUGCGACCUCCACCACCAACCUCACCUCGCAGAAGGGACACACC [Mod-Cyanosaur/default-title] (Eterna round: R97, puzzle: Exclusion 1) |  |  |  | 24.2 | 23.7 | 
CUUGUUUAUGUAGGAUAUGCCUGGCGUGCCUUUGCAGAAGGACAUGAGGAUCACCCAUGUAACAUGAGGCUCACCCUUGUCGCC [salish99_ExNG1_r04_116] (Eterna round: R96, puzzle: Exclusion NG 1) |  |  |  | 146 | 114 | 90.1
CUGGUCCGAGGAUAUAUUAAGUGAUACAUGAGGAUCACCCAUGUUAUUUAAUGGAUGUUAAUAGAAGGCGGACUAG [JL-ex5-3.19] (puzzle: Exclusion 5) | 33.9 | 43.9 | 34.8 |  |  | 
GGUCAUCAAGUCAGGAUAUCGUCAAAUCAAUCAGGCGAGAAGGGACAUGAGGAUCACCCAUGUCGACUCAUCAG [Ex4 #5] (Eterna round: R97, puzzle: Brourd's mod of Exclusion 4) |  |  |  | 123 | 34.3 | 
UCGGGUAGAGGAUAUACAUAGAAAUAGAUUCAUGUAAAACUACAUGAGGAUCACCCAUGUAGAAGGCUAUCCGU [Mat - Exclusion 2 - JL Mod - D56] (Eterna round: R97, puzzle: Exclusion 2) |  |  |  | 164 | 27.2 | 
AUUGUUUGAUACCUUUAAUACAUGAGGAUCACCCAUGUUAUCGAGGAUAUGUAGAAGAGAUGAGAACAGAAGGCGAAGUAAGAG [JR_ExcNG3_Sub096] (Eterna round: R96, puzzle: Exclusion NG 3) |  |  |  | 21.3 | 16.5 | 11.1
